Test results reported in patent US9062100B2, “Anti-human TROP-2 antibody having anti-tumor activity in vivo” (LIVTECH, INC., dated 2015).
Where no end group is shown, it is not given here.

Assays:
Table 9 peptide No. 18 = target: T1, Table 9 peptide No. 18 (human, not fully specified; cysteine pairing not given here); experiment: PEPSCAN CLIPS peptide ELISA
T1 peptide: CFQGRGGLDLRVRGEPC

Table 9 peptide No. 25 = target: T2, Table 9 peptide No. 25 (human, not fully specified; cysteine pairing not given here); experiment: PEPSCAN CLIPS peptide ELISA
T2 peptide: CSPDGPGGRCQCRAL

Table 9 peptide No. 5 = target: T3, Table 9 peptide No. 5 (human, not fully specified); experiment: PEPSCAN CLIPS peptide ELISA
T3 peptide: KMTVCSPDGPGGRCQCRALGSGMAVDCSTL

Table 9 peptide No. 15 = target: T4, Table 9 peptide No. 15 (human, not fully specified); experiment: PEPSCAN CLIPS peptide ELISA
T4 peptide: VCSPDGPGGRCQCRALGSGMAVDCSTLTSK

Table 9 peptide No. 9 = target: T5, Table 9 peptide No. 9 (human, not fully specified; cysteine pairing not given here); experiment: PEPSCAN CLIPS peptide ELISA
T5 peptide: CTHHILIDLRHRPTAGC

Table 9 peptide No. 27 = target: T6, Table 9 peptide No. 27 (human, not fully specified); experiment: PEPSCAN CLIPS peptide ELISA
T6 peptide: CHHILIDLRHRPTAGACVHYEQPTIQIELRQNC

Table 9 peptide No. 11 = target: T7, Table 9 peptide No. 11 (human, not fully specified); experiment: PEPSCAN CLIPS peptide ELISA
T7 peptide: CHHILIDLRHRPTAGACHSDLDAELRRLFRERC

Table 9 peptide No. 6 = target: T8, Table 9 peptide No. 6 (human, not fully specified); experiment: PEPSCAN CLIPS peptide ELISA
T8 peptide: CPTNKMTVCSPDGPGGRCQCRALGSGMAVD

Table 9 peptide No. 24 = target: T9, Table 9 peptide No. 24 (human, not fully specified); experiment: PEPSCAN CLIPS peptide ELISA
T9 peptide: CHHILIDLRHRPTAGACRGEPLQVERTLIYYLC

Table 9 peptide No. 14 = target: T10, Table 9 peptide No. 14 (human, not fully specified; cysteine pairing not given here); experiment: PEPSCAN CLIPS peptide ELISA
T10 peptide: CDAELRRLFRERYRLHCPK

Table 9 peptide No. 16 = target: T11, Table 9 peptide No. 16 (human, not fully specified); experiment: PEPSCAN CLIPS peptide ELISA
T11 peptide: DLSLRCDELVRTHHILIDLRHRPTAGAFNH

Table 9 peptide No. 17 = target: T12, Table 9 peptide No. 17 (human, not fully specified); experiment: PEPSCAN CLIPS peptide ELISA
T12 peptide: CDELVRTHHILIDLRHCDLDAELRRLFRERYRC

Table 9 peptide No. 8 = target: T13, Table 9 peptide No. 8 (human, not fully specified); experiment: PEPSCAN CLIPS peptide ELISA
T13 peptide: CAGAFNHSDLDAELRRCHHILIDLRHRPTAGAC

Table 9 peptide No. 22 = target: T14, Table 9 peptide No. 22 (human, not fully specified); experiment: PEPSCAN CLIPS peptide ELISA
T14 peptide: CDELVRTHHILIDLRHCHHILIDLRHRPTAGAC

Table 9 peptide No. 4 = target: T15, Table 9 peptide No. 4 (human, not fully specified); experiment: PEPSCAN CLIPS peptide ELISA
T15 peptide: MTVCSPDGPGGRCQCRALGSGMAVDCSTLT

Table 9 peptide No. 2 = target: T16, Table 9 peptide No. 2 (human, not fully specified); experiment: PEPSCAN CLIPS peptide ELISA
T16 peptide: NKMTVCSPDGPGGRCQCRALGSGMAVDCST

Table 9 peptide No. 10 = target: T17, Table 9 peptide No. 10 (human, not fully specified); experiment: PEPSCAN CLIPS peptide ELISA
T17 peptide: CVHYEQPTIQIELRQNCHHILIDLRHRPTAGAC

Table 9 peptide No. 21 = target: T18, Table 9 peptide No. 21 (human, not fully specified); experiment: PEPSCAN CLIPS peptide ELISA
T18 peptide: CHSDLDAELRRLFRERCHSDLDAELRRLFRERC

Table 9 peptide No. 20 = target: T19, Table 9 peptide No. 20 (human, not fully specified); experiment: PEPSCAN CLIPS peptide ELISA
T19 peptide: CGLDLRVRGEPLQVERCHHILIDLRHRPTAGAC

Table 9 peptide No. 23 = target: T20, Table 9 peptide No. 23 (human, not fully specified); experiment: PEPSCAN CLIPS peptide ELISA
T20 peptide: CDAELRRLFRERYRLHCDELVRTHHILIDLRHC

Table 9 peptide No. 19 = target: T21, Table 9 peptide No. 19 (human, not fully specified); experiment: PEPSCAN CLIPS peptide ELISA
T21 peptide: T20 peptide

Table 9 peptide No. 3 = target: T22, Table 9 peptide No. 3 (human, not fully specified); experiment: PEPSCAN CLIPS peptide ELISA
T22 peptide: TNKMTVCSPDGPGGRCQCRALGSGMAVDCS

Table 9 peptide No. 7 = target: T23, Table 9 peptide No. 7 (human, not fully specified); experiment: PEPSCAN CLIPS peptide ELISA
T23 peptide: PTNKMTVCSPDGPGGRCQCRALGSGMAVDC

Table 9 peptide No. 29 = Table 9 peptide No. 29 (human); experiment: PEPSCAN CLIPS peptide ELISA
Table 9 peptide No. 26 = Table 9 peptide No. 26 (human); experiment: PEPSCAN CLIPS peptide ELISA
Table 9 peptide No. 1 = target: T24, Table 9 peptide No. 1 (human, not fully specified); experiment: PEPSCAN CLIPS peptide ELISA
T24 peptide: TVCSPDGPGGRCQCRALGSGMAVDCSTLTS

Table 9 peptide No. 12 = target: T25, Table 9 peptide No. 12 (human, not fully specified); experiment: PEPSCAN CLIPS peptide ELISA
T25 peptide: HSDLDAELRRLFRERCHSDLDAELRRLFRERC

Table 9 peptide No. 13 = target: T26, Table 9 peptide No. 13 (human, not fully specified); experiment: PEPSCAN CLIPS peptide ELISA
T26 peptide: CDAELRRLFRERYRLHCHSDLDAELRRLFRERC

Table 9 peptide No. 28 = target: T27, Table 9 peptide No. 28 (human, not fully specified); experiment: PEPSCAN CLIPS peptide ELISA
T27 peptide: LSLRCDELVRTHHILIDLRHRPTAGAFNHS

[1] = target: T28, recombinant protein of the extracellular region of hTROP-2 (human); experiment: ELISA of free antibody after equilibration with antigen in solution
T28 sequence: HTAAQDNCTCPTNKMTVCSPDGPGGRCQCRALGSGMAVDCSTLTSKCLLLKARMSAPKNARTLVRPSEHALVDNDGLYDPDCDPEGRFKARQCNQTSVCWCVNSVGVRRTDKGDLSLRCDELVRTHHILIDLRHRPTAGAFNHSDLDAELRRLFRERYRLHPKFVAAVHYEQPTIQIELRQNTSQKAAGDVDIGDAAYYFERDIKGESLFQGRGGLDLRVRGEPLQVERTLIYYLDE

human TROP-2 (hTROP-2) [2] = target: T29, human TROP-2 (hTROP-2) (human); experiment: FACS on PK-59 cells
T29 chain: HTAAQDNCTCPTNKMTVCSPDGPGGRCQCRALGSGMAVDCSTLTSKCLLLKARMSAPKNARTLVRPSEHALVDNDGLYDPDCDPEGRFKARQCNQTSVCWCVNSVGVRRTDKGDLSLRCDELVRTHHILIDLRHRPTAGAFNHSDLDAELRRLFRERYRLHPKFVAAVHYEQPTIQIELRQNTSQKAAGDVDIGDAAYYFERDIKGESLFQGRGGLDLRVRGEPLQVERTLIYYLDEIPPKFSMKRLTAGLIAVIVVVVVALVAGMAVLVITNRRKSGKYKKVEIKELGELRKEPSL

human TROP-2 (hTROP-2) [3] = target: T29, human TROP-2 (hTROP-2); experiment: FACS on BxPC-3 cells

Table 9 peptide No. 26 (human), sequence (peptide, as listed by the source): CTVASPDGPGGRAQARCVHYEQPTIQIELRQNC
Table 9 peptide No. 29 (human), sequence (peptide, as listed by the source): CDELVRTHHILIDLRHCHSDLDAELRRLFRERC

B1: anti-hTROP-2 monoclonal antibody K5-116-2-1 (antibody, V domains shown)
VH: QVQLQQPGAELVRPGASVKLSCKASGYTFTSYWITWVKQRPGQGLEWIGNIYPSDSYTNYNQKFRDKATLTVDKSSSTAYMQLSSPTSEDSAVYYCSALFDYWGQGTTLTVSS
VL: DILLTQSPAILSVSPGERVSFSCRASQSIGTSIHWYQQRTNGSPRLLIKYASESISGIPSRFSGSGSGTDFILSINSVESEDIADYYCQQSNSWPFTFGSGTKLEIK
binding of K5-116-2-1 (Table 9 peptide No. 18): 1380 | binding of K5-116-2-1 (Table 9 peptide No. 25): 1230 | binding of K5-116-2-1 (Table 9 peptide No. 5): 2420 | binding of K5-116-2-1 (Table 9 peptide No. 15): 1430 | binding of K5-116-2-1 (Table 9 peptide No. 9): 1590 | binding of K5-116-2-1 (Table 9 peptide No. 27): 1220 | binding of K5-116-2-1 (Table 9 peptide No. 11): 1480 | binding of K5-116-2-1 (Table 9 peptide No. 6): 2140 | binding of K5-116-2-1 (Table 9 peptide No. 24): 1230 | binding of K5-116-2-1 (Table 9 peptide No. 14): 1440 | binding of K5-116-2-1 (Table 9 peptide No. 16): 1420 | binding of K5-116-2-1 (Table 9 peptide No. 17): 1390 | binding of K5-116-2-1 (Table 9 peptide No. 8): 1640 | binding of K5-116-2-1 (Table 9 peptide No. 22): 1320 | binding of K5-116-2-1 (Table 9 peptide No. 4): 2440 | binding of K5-116-2-1 (Table 9 peptide No. 2): 2610 | binding of K5-116-2-1 (Table 9 peptide No. 10): 1500 | binding of K5-116-2-1 (Table 9 peptide No. 21): 1330 | binding of K5-116-2-1 (Table 9 peptide No. 20): 1340 | binding of K5-116-2-1 (Table 9 peptide No. 23): 1270 | binding of K5-116-2-1 (Table 9 peptide No. 19): 1370 | binding of K5-116-2-1 (Table 9 peptide No. 3): 2480 | binding of K5-116-2-1 (Table 9 peptide No. 7): 1720 | binding of K5-116-2-1 (Table 9 peptide No. 29): 1200 | binding of K5-116-2-1 (Table 9 peptide No. 26): 1220 | binding of K5-116-2-1 (Table 9 peptide No. 1): 2670 | binding of K5-116-2-1 (Table 9 peptide No. 12): 1470 | binding of K5-116-2-1 (Table 9 peptide No. 13): 1460 | binding of K5-116-2-1 (Table 9 peptide No. 28): 1220 | Kd [1]: 26.9 pM | mean fluorescence intensity, times that with PE-labeled anti-mouse IgG only (human TROP-2 (hTROP-2) [2]): 122 times | mean fluorescence intensity, times that with PE-labeled anti-mouse IgG only (human TROP-2 (hTROP-2) [3]): 121 times
